Like-named read-outs stand apart in the source and are kept apart here. Each block holds one binder with its values, some of them ahead of it.
Legend:
[1] = target: T1, human CD73 on the cell surface (human, UniProt P21589 27-549); experiment: cell-based or functional assay
T1 sequence: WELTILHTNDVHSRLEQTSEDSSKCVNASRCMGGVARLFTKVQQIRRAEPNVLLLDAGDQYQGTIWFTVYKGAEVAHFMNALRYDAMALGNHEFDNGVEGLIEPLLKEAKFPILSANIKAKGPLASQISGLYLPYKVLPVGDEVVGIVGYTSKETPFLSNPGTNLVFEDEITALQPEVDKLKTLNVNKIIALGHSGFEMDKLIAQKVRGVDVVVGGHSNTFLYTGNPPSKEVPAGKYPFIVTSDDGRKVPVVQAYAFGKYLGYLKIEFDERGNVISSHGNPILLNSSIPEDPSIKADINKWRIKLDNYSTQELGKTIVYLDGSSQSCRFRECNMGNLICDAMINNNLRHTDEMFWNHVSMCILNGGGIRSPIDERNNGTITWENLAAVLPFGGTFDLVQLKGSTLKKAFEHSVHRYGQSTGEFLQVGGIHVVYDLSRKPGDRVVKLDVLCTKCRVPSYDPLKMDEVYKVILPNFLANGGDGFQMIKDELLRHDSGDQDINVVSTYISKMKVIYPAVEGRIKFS

[2] = target: T1, human CD73 on the cell surface; experiment: cell-based or functional assay; remark: listed apart in the source
[3] = target: T1, human CD73 on the cell surface; experiment: flow cytometry on CHOK1-huCD73-3F4 cells, PE anti-human Fc
Experimental: (§1) All the antigen-binding proteins were diluted to 30 μg/ml with PBS solution containing 1% BSA (1% BSA/PBS), diluted at 3-fold into 11 gradients and then added to a 96-well U-shaped plate at 20 μL/well, and negative control (1% BSA/PBS was added only) was set up simultaneously. The suspension of human CD73-expressing cells (CHOK1-huCD73-3F4, Huabo Biopharm) in the logarithmic growth phase were collected and centrifuged at 1000 rpm for 5 min, and the culture medium was discarded; then the cells were resuspended with 1% BSA/PBS to a viable cell density of 1×10⁶/mL, and then added into the 96-well U-shaped plate already added with anti-CD73 antigen-binding protein at 20 μL (2×10⁴ cells)/well for reaction at room temperature for 30 min. […] After the reaction, the cells in the 96-well U-shaped plate were resuspended with 1% BSA/PBS and centrifuged at 300 g for 3 min and the supernatant was discarded; after washing in this manner 3 times, and the cells were finally resuspended with 1% BSA/PBS at 100 μL/well, and the fluorescence intensity of the PE channel was measured with a flow cytometer (BD, #Canto II).

[4] = target: T2, human CD73 protein (ACRO Biosystems, Cat No. CD3-H52H7) (human, UniProt P21589 27-547); experiment: cell-based or functional assay
T2 sequence: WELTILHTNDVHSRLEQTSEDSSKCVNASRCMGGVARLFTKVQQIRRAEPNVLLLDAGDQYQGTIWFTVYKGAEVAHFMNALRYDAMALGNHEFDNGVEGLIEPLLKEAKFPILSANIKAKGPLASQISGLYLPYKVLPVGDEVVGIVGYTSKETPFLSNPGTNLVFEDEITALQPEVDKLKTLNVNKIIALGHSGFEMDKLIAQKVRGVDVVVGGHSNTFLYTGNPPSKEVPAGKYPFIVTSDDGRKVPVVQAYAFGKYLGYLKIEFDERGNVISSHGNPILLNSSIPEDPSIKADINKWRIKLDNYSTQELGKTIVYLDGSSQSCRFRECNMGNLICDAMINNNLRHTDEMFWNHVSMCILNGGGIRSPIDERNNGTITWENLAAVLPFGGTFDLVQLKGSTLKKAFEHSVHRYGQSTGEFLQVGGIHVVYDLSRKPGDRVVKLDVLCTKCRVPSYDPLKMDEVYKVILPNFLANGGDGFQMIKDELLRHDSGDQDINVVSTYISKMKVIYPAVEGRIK

[5] = target: T3, mouse CD73/NT5E (ACRO Biosystems, Cat No. CD3-M52H9) (mouse, UniProt Q61503 29-551); experiment: SPR (Biacore T200), antibody captured on protein A chip
T3 construct: Bought protein
T3 sequence (looked up): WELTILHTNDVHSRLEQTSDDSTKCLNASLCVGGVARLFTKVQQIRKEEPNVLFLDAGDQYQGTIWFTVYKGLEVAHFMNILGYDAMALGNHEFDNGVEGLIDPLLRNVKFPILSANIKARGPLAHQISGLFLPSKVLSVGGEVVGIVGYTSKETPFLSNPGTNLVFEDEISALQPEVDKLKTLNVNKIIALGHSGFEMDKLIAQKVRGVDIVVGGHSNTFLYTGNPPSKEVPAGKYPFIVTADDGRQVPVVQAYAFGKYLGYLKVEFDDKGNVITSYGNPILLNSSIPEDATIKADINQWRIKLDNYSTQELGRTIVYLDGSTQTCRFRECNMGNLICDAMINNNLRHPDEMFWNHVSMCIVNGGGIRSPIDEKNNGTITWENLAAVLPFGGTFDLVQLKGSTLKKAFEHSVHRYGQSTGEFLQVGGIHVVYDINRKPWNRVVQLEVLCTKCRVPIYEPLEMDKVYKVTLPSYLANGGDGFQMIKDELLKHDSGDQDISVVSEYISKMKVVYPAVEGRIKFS
Experimental: (§2) The temperatures of the sample chamber and flow path were set at 25° C. The protein A chips separately captured the antigen-binding proteins as ligands, which were immobilized at about 100 RU. […] Ten mM Glycine, pH 1.5, was regenerated for 60 s at a flow rate of 50 L/min for multiple cycle kinetic detection. The binding rate constant (ka), dissociation rate constant (kd) and dissociation equilibrium rate constant (KD) were fitted using the Fit local mode of a 1:1 binding model.

[6] = target: T4, rat CD73 (Novoprotein, Cat No. CB16) (rat, UniProt P21588 29-551, limits assumed); experiment: as above
T4 construct: Bought protein
T4 sequence (looked up): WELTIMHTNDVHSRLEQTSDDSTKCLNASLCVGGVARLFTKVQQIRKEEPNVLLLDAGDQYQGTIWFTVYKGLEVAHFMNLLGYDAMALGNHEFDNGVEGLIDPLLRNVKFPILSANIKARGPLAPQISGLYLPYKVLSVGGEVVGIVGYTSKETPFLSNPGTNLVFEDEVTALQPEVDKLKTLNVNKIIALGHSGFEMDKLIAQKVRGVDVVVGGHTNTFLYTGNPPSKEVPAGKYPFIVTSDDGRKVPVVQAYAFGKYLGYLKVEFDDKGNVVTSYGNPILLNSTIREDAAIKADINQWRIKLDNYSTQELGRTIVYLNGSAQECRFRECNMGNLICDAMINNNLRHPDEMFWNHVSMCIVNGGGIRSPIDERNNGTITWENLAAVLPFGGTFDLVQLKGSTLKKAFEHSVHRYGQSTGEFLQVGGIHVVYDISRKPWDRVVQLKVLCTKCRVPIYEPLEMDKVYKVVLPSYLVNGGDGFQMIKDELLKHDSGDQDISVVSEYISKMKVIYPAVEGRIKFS
Experimental: as §2

[7] = target: T2, human CD73 protein (ACRO Biosystems, …); experiment: SPR (Biacore T200), antibody captured on protein A chip, CD73 as analyte, 1:1 model
Experimental: as §2, with “μL/min” for “L/min”

[8] = target: T1, human CD73 on the cell surface; experiment: flow cytometry on CHOK1-huCD73-3F4 cells, PE anti-human Fc; remark: listed apart in the source
Experimental: as §1

Endocytosis efficiency (%) [1]: 44.2%
B1: 900222 (antibody, from another filing, V domains shown)
VH: QVQLVESGGGVVQPGRSLRLSCAASGFTFSNYGMHWVRQAPGKGLEWVAVILYDGSNKYYPDSVKGRFTISRDNSKNTLYLQMNSLRAEDTAVYYCARGGSSWYPDSFDIWGQGTMVTVSS
VL: DIQMTQSPSSLSASVGDRVTITCRASQGISSWLAWYQQKPEKAPKSLIYAASSLQSGVPSRFSGSGSGTDFTLTISSLQPEDFATYYCQQYNSYPLTFGGGTKVEIKR

EC50(µg/mL), inhibition of enzyme activity of CD73 on CHOK1-huCD73-3F4 cells [2]: 1.62 µg/mL
EC50 [3]: 2.14 µg/mL
B2: 900565 (antibody, V domains shown)
VH: QAYLQQSGAELVRPGASVKMSCKASGYTFTSYNMHWVKQTPRQGLEWIGAIYPGNGDTSYNQKFKGKATLNVDKSSSTAYMQLSSLTSEDSAVYFCARWGYGSNYAWYFDIWGTGTTVTVSS
VL: DIQMTQSPASLSASVGETVTITCRTSGNIHNYLVWYQQKQGKSPQLLVFNAKTLADGVPSRFSGSGSGTQYSLKINSLQPEDFGSYYCQHFWSTPFTFGSGTKLEIK
notes: Chimeric antibody derived from hybridoma 115B10; it was detected with anti-human Fc

EC50(µg/mL), inhibition of recombinant CD73 (CellTiter-Glo) [4]: 0.681 µg/mL
binding result [5]: no binding (tested: up to 50 nM analyte)
binding result [6]: no binding (tested: up to 50 nM analyte)
Kd [7]: 1.5 nM
koff [7]: 0.000493 s⁻¹
kon [7]: 329000 M⁻¹ s⁻¹
EC50 [8]: 0.646 µg/mL
B3: 900694 (antibody, V domains shown)
VH: EVQLVESGGGLVKPGGSLRLSCAASGFTFSKYAMSWVRQAPGKGLEWVAEISSGGGYINYPDTVTGRFTISRDNAKNSLYLQMNSLRAEDTAVYYCARAIYYYGSSYNYYAMDYWGQGTTVTVSS
VL: DIQMTQSPSSLSASVGDRVTITCRASQDVGTAEAWYQQKPGKAPKLLIYWASTRHTGVPDRFSGSGSGTDFTLTISSLQPEDFATYYCQQYSSYPLTFGQGTKLEIK
notes: Constant regions are not restated; it was detected with anti-human Fc and captured on protein A

From patent US20240026024A1 (SHANGHAI HUAOTA BIOPHARMACEUTICAL, published 2024)
